We go through seven molecules from patent US20260022175A1 (Chugai, published 2026).

Test [1] has as its target T1, hCTLA4-His-BAP (human CTLA4 extracellular region with C-terminal His-tag and BAP-tag) (human, biotin on the BAP-tag).
T1 construct: also called hCTLA4-His-Biotin
The test can be described thus: SPR 37C, ATP 10 µM; ATP 10 µM.

Test [2] addresses T1, hCTLA4-His-BAP (human CTLA4 …). As to the kind of experiment: SPR 37C, ATP 100 µM; ATP 100 µM.
Test [3] shares this target. The test can be described thus: SPR 37C, hCTLA4 1000 nM, no ATP; no ATP; binding amount at 1000 nM hCTLA4.
Test [4] has the same target. As to the kind of experiment: SPR 37C, hCTLA4 1000 nM, ATP 1 µM; ATP 1 µM; binding amount at 1000 nM hCTLA4.
For test [5] the target is unchanged. The test can be described thus: SPR 37C, hCTLA4 1000 nM, ATP 10 µM; ATP 10 µM; binding amount at 1000 nM hCTLA4.
Test [6] shares this target. The test can be described thus: SPR 37C, hCTLA4 1000 nM, ATP 100 µM; ATP 100 µM; binding amount at 1000 nM hCTLA4.
Test [7] concerns the target T2, human C1q protein (Calbiochem) (human, UniProt P02745 23-245; P02746 28-253; P02747 29-245).
T2 construct: bought; also called hC1q
The test can be described thus: ELISA, antibody on the plate, hC1q 3 µg/mL. On the technique in general: ELISA stands for enzyme-linked immunosorbent assay.

T1 sequence (chain, as listed by the source limits assumed): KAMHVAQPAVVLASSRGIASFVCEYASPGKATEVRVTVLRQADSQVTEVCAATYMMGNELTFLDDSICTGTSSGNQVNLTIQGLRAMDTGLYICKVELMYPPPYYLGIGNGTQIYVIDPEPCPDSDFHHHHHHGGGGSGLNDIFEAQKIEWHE
T2 sequence (P02745 23-245 limits assumed, chain 1 of 3): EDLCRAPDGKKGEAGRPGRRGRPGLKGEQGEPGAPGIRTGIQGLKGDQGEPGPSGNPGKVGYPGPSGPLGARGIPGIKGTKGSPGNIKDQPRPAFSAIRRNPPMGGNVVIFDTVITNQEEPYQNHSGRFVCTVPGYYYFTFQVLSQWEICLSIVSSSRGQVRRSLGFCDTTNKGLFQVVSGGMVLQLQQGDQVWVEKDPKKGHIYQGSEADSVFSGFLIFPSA
T2 sequence (P02746 28-253 limits assumed, chain 2 of 3): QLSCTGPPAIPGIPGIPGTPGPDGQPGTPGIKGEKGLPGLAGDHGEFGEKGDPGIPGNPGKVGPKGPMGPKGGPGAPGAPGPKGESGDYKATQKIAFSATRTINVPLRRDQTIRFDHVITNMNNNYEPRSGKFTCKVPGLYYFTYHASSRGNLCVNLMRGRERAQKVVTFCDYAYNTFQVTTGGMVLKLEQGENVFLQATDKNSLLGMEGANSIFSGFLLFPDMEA
T2 sequence (P02747 29-245 limits assumed, chain 3 of 3): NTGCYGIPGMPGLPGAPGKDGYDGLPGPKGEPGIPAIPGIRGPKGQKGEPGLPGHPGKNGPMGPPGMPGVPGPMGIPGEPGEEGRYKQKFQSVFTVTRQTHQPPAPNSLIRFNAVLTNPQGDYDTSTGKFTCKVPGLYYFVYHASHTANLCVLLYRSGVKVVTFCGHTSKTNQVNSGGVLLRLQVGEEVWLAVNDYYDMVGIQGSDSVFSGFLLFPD

B1: 04H1077-G1m/04L1041-lam1 (antibody, human IgG1, lambda, V domains shown)
VH: EVQLVESGGDLVKPGGGLRLSCAASGFTFSSRTMNWVRQAPGKGLEWVSSISTRSGYIYYAESVKGRFTISRDNAKNSLYLQMNSLRAEDTAVYYCARYGKREDMLWVFDYWGQGTLVTVSS
VL: QSALTQPPSASGSPGQTVTISCDGPSTDVGDYNYVHWYQQHPGKAPKLMIYFTSKKPSGVPDRFSGSKSGNTASLTVSGLQAEDEADYFCSTYAAPLGPMFGGGTKLTVLG
Usually Kd stands for the constant that tells how readily two partners part at equilibrium. Read a low Kd as higher affinity. With B1, the Kd was 730 nM in test [1] and 140 nM in test [2]. For the same molecule, the “Binding to Human CTLA4” value was 0.006 per unit amount of antibody in test [3], 0.023 per unit amount of antibody in test [4], 0.094 per unit amount of antibody in test [5] and 0.172 per unit amount of antibody in test [6].

B2: 04H1077-G1m/04L1086-lam1 (antibody, human IgG1, lambda, V domains shown)
VH: EVQLVESGGDLVKPGGGLRLSCAASGFTFSSRTMNWVRQAPGKGLEWVSSISTRSGYIYYAESVKGRFTISRDNAKNSLYLQMNSLRAEDTAVYYCARYGKREDMLWVFDYWGQGTLVTVSS
VL: QSALTQPPSASGSPGQTVTISCDGPSTGVGDYNYVHWYQQHPGKAPKLMIYFTSKKPSGVPDRFSGSKSGNTASLTVSGLQAEDEADYFCQTYAAPLGPMFGGGTKLTVLG
Turning to B2, the Kd in test [1] turned out to be 690 nM; in test [2] it was 110 nM. Moreover, the “Binding to Human CTLA4” value in test [3] was 0.01 per unit amount of antibody; in test [4], 0.031 per unit amount of antibody; in test [5], 0.106 per unit amount of antibody; in test [6], 0.181 per unit amount of antibody.

B3: 04H1208-G1m/04L1086-lam1 (antibody, human IgG1, lambda, V domains shown)
VH: EVQLVESGGGLVKPGGSLRLSCAASGFTFSSKTMNWVRQAPGKGLEWVSSISTRSGYIYYARSVKGRFTISRDNAKNSLYLQMNSLRAEDTAVYYCARYGKREDMLWVFDYWGQGTLVTVSS
VL: QSALTQPPSASGSPGQTVTISCDGPSTGVGDYNYVHWYQQHPGKAPKLMIYFTSKKPSGVPDRFSGSKSGNTASLTVSGLQAEDEADYFCQTYAAPLGPMFGGGTKLTVLG
As for B3, the Kd in test [1] worked out at 450 nM; in test [2], 74 nM. In addition, the “Binding to Human CTLA4” value in test [3] was 0.005 per unit amount of antibody; in test [4], 0.03 per unit amount of antibody; in test [5], 0.108 per unit amount of antibody; in test [6] it was 0.17 per unit amount of antibody.

B4: 04H1077-G1m/04L1067-lam1 (antibody, human IgG1, lambda, V domains shown)
VH: EVQLVESGGDLVKPGGGLRLSCAASGFTFSSRTMNWVRQAPGKGLEWVSSISTRSGYIYYAESVKGRFTISRDNAKNSLYLQMNSLRAEDTAVYYCARYGKREDMLWVFDYWGQGTLVTVSS
VL: QSALTQPPSASGSPGQTVTISCDGPSTGVGDYNYVHWYQQHPGKAPKLMIYFTSKKPSGVPDRFSGSKSGNTASLTVSGLQAEDEADYFCSTYAAPLGPMFGGGTKLTVLG
For B4, the Kd was 400 nM in test [1] and 76 nM in test [2]. Also, the “Binding to Human CTLA4” value in test [3] is 0.012 per unit amount of antibody; in test [4] it was 0.041 per unit amount of antibody; in test [5] it was 0.131 per unit amount of antibody; in test [6], 0.192 per unit amount of antibody.

B5: 04H1207-G1m/04L1086-lam1 (antibody, human IgG1, lambda, V domains shown)
VH: EVQLVESGGGLVKPGGSLRLSCAASGFTFSSKTMNWVRQAPGKGLEWVSSISTRSGYIYYAESVKGRFTISRDNAKNSLYLQMNSLRAEDTAVYYCARYGKREDMLWVFDYWGQGTLVTVSS
VL: QSALTQPPSASGSPGQTVTISCDGPSTGVGDYNYVHWYQQHPGKAPKLMIYFTSKKPSGVPDRFSGSKSGNTASLTVSGLQAEDEADYFCQTYAAPLGPMFGGGTKLTVLG
For the molecule B5, the Kd in test [1] is 330 nM; in test [2] it was 59 nM. Also, the “Binding to Human CTLA4” value in test [3] is 0.013 per unit amount of antibody; in test [4], 0.047 per unit amount of antibody; in test [5], 0.137 per unit amount of antibody; in test [6], 0.196 per unit amount of antibody.

B6: H240-Kn462/L73-k0//H240-Hl441/L73-k0 (antibody)
heavy 1: QDQLVQSGAEVKKPGASVKVSCKASGFNIKDTYIQWVRQAPGQGLEWMGRIDPLRKQTKYREKFEGRVTITADTSTNTAYMELSSLRSEDTAVYYCVRSGREFDYWGQGTLVTVSSASTKGPSVFPLAPSSKSTSGGTAALGCLVKDYFPEPVTVSWNSGALTSGVHTFPAVLQSSGLYSLSSVVTVPSSSLGTQTYICNVNHKPSNTKVDKKVEPKSCDKTHTCPPCPAPEFQWGPMVFLFPPKPKDVLMISRTPEVTCVVVDVSDEEPEVKFNWYVDGVEVHNAKTKPREEQYNATYRVVSVLPVLHQDWLNGKEYKCKVSNDALPAPIEKTISKAKGQPREPQVCTLPPSRDELTKNQVSLWCLVKGFYPSDIAVEWESNGQPENNYKTTPPVLDSDGSFFLYSKLTVDKSRWQQGNVFSCSVMHEALHNHYTQKSLSLSP
heavy 2: QDQLVQSGAEVKKPGASVKVSCKASGFNIKDTYIQWVRQAPGQGLEWMGRIDPLRKQTKYREKFEGRVTITADTSTNTAYMELSSLRSEDTAVYYCVRSGREFDYWGQGTLVTVSSASTKGPSVFPLAPSSKSTSGGTAALGCLVKDYFPEPVTVSWNSGALTSGVHTFPAVLQSSGLYSLSSVVTVPSSSLGTQTYICNVNHKPSNTKVDKKVEPKSCDKTHTCPPCPAPELLAGPSVFLFPPKPKDVLMISRTPEVTCVVVDVSHEEPEVKFNWYVDGVEVHNAKTKPREEQYNATYRVVSVLPVLHQDWLNGKEYKCKVSNDALPAPIEETISKAKGQPREPQVYTLPPSRCELTKNQVSLSCAVKGFYPSDIAVEWESNGQPENNYKTTPPVLDSDGSFFLVSKLTVDKSRWQQGNVFSCSVMHEALHNHYTQKSLSLSP
light: DIQMTQSPSSLSASVGDRVTITCRASQDIHKYIAWYQQKPGQAPRLLIQYTSTLQPGVPSRFSGSGSGTDYTFTISSLQPEDIATYYCLQYEQLRTFGGGTKVEIKRTVAAPSVFIFPPSDEQLKSGTASVVCLLNNFYPREAKVQWKVDNALQSGNSQESVTEQDSKDSTYSLSSTLTLSKADYEKHKVYACEVTHQGLSSPVTKSFNRGEC
notes: also called EGL-ART5; ART5; copies: 1 + 1 + 2
On to B6, for which the binding result in test [7] is listed as “binds”.

B7: H240-Kn443/L73-k0//H240-Hl408/L73-k0 (antibody)
heavy 1: QDQLVQSGAEVKKPGASVKVSCKASGFNIKDTYIQWVRQAPGQGLEWMGRIDPLRKQTKYREKFEGRVTITADTSTNTAYMELSSLRSEDTAVYYCVRSGREFDYWGQGTLVTVSSASTKGPSVFPLAPSSKSTSGGTAALGCLVKDYFPEPVTVSWNSGALTSGVHTFPAVLQSSGLYSLSSVVTVPSSSLGTQTYICNVNHKPSNTKVDKKVEPKSCDKTHTCPPCPAPEFQWGPMVFLFPPKPKDTLMISRTPEVTCVVVDVSDEEPEVKFNWYVDGVEVHNAKTKPREEQYNATYRVVSVLTVLHQDWLNGKEYKCKVSNDALPAPIEKTISKAKGQPREPQVCTLPPSRDELTKNQVSLWCLVKGFYPSDIAVEWESNGQPENNYKTTPPVLDSDGSFFLYSKLTVDKSRWQQGNVFSCSVMHEALHNHYTQKSLSLSP
heavy 2: QDQLVQSGAEVKKPGASVKVSCKASGFNIKDTYIQWVRQAPGQGLEWMGRIDPLRKQTKYREKFEGRVTITADTSTNTAYMELSSLRSEDTAVYYCVRSGREFDYWGQGTLVTVSSASTKGPSVFPLAPSSKSTSGGTAALGCLVKDYFPEPVTVSWNSGALTSGVHTFPAVLQSSGLYSLSSVVTVPSSSLGTQTYICNVNHKPSNTKVDKKVEPKSCDKTHTCPPCPAPELLAGPSVFLFPPKPKDTLMISRTPEVTCVVVDVSHEEPEVKFNWYVDGVEVHNAKTKPREEQYNATYRVVSVLTVLHQDWLNGKEYKCKVSNDALPAPIEETISKAKGQPREPQVYTLPPSRCELTKNQVSLSCAVKGFYPSDIAVEWESNGQPENNYKTTPPVLDSDGSFFLVSKLTVDKSRWQQGNVFSCSVMHEALHNHYTQKSLSLSP
light: DIQMTQSPSSLSASVGDRVTITCRASQDIHKYIAWYQQKPGQAPRLLIQYTSTLQPGVPSRFSGSGSGTDYTFTISSLQPEDIATYYCLQYEQLRTFGGGTKVEIKRTVAAPSVFIFPPSDEQLKSGTASVVCLLNNFYPREAKVQWKVDNALQSGNSQESVTEQDSKDSTYSLSSTLTLSKADYEKHKVYACEVTHQGLSSPVTKSFNRGEC
notes: also called EGL-ART3; ART3; copies: 1 + 1 + 2
With B7, the binding result in test [7] is recorded as “binds”.
